Results reported in US20020039999A1.

Biological target: opioid receptors of rat brain homogenate ([3H]-Naloxone binding sites)
Test: [3H]-Naloxone (1.0 nM) displacement, rat brain homogenate, filtration

Substance | % inhibition at 0.1 nM | % inhibition at 10 nM | % inhibition at 1000 nM
Dynorphin A 2-17-NH2 (peptide) | -3.21% | 4.87% | 12.7%
Human serum albumin (HSA) (from UniProt P02768 25-609) | -0.6% | – | –
Dynorphin A 1-13-NH2 (peptide) | 2.76% | 9.89% | 91.8%
Dynorphin A 2-13-NH2 (peptide) | 1.66% | -0.19% | 44.1%
